Results reported in paper PMC6648896 (Nucleic Acids Research, 2019).

Biological target: E. coli RNAP core enzyme (E. coli, UniProt P0A7Z4;P0A8V2;P0A8T7;P0A800)
Experiment: fluorescence polarisation

E. coli RNAP core enzyme, sequence (P0A7Z4 whole entry, chain 1 of 4): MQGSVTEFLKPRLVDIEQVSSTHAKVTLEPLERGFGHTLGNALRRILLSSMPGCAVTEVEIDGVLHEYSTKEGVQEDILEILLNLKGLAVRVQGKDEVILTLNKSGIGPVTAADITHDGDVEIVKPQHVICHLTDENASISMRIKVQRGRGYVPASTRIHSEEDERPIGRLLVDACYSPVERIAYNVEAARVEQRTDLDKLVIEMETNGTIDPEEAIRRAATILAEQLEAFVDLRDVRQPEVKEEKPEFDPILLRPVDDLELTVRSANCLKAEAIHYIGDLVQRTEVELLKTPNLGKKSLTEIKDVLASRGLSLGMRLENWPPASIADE
E. coli RNAP core enzyme, sequence (P0A8V2 whole entry, chain 2 of 4): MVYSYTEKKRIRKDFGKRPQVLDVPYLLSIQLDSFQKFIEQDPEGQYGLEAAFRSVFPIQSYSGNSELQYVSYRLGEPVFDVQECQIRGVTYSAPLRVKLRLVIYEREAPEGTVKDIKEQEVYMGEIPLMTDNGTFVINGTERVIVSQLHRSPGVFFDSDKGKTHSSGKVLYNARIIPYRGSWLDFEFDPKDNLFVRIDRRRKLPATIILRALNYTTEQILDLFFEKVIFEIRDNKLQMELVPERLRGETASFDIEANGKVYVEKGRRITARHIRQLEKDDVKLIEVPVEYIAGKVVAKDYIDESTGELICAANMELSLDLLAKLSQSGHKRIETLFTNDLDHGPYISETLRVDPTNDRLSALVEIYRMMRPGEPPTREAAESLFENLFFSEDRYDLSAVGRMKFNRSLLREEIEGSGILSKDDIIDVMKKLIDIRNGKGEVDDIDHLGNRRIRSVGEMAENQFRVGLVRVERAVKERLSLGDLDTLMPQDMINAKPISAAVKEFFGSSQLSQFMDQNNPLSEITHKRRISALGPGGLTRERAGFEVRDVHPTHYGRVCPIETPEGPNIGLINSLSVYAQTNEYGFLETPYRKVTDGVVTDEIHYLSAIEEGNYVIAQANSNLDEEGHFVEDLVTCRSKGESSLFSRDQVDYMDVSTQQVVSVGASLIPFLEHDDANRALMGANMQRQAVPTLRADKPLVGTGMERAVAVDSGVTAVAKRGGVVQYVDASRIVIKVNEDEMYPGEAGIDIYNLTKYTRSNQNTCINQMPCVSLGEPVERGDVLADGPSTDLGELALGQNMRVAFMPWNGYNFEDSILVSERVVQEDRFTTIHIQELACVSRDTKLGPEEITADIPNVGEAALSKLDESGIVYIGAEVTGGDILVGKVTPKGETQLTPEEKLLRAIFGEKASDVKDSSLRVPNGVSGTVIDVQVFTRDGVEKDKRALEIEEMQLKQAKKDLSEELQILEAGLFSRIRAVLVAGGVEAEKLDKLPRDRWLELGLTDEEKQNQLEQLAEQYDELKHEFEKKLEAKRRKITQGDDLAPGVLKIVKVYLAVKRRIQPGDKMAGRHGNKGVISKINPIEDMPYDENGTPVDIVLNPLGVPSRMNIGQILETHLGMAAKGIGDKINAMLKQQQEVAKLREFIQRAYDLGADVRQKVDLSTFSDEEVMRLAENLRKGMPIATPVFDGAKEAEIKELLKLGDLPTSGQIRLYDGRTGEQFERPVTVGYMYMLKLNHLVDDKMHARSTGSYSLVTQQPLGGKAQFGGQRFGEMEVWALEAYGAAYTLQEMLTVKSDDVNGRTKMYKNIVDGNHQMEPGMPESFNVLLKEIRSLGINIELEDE
E. coli RNAP core enzyme, sequence (P0A8T7 whole entry, chain 3 of 4): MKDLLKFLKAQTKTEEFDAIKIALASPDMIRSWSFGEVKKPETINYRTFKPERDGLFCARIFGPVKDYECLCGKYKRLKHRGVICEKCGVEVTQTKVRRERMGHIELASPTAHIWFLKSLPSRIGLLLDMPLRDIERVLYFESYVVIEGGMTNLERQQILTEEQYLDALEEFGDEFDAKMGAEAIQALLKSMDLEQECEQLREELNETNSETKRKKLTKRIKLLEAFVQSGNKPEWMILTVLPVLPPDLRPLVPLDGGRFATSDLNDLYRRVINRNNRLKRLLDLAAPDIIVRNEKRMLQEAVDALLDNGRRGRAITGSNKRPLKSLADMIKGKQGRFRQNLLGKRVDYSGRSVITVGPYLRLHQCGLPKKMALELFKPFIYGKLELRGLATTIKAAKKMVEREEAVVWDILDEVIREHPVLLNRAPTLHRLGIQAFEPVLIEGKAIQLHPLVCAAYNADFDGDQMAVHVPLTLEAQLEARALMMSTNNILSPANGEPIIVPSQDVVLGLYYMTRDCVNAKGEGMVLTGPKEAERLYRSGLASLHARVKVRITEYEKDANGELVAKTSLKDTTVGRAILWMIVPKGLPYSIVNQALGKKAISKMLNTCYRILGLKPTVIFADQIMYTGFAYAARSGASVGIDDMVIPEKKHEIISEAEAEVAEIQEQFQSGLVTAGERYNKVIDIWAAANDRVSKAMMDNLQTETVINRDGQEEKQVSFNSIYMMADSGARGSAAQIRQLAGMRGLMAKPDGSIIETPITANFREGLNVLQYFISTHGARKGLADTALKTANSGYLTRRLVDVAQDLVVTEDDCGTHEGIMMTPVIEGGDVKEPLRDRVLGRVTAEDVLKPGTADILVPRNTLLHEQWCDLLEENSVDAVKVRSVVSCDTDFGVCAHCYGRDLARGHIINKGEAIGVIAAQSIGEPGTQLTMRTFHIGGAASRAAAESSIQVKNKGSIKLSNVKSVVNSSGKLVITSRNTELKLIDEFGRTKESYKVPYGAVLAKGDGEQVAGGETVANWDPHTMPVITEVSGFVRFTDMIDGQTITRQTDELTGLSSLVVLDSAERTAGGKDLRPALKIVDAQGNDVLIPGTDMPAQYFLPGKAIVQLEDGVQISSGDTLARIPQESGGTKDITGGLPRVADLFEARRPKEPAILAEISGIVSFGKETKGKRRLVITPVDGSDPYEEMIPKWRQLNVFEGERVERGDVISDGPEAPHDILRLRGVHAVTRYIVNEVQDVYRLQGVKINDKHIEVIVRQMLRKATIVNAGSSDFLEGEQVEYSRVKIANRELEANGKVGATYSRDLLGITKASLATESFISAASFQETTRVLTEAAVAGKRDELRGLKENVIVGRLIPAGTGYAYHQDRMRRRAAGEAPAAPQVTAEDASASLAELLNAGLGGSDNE
E. coli RNAP core enzyme, sequence (P0A800 whole entry, chain 4 of 4): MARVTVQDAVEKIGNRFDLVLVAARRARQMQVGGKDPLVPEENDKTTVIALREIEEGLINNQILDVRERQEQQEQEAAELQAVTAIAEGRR

B1: fluorescein-labeled E. coli σ^E (natural protein)
chain: MSEQLTDQVLVERVQKGDQKAFNLLVVRYQHKVASLVSRYVPSGDVPDVVQEAFIKAYRALDSFRGDSAFYTWLYRIAVNTAKNYLVAQGRRPPSSDVDAIEAENFESGGALKEISNPENLMLSEELRQIVFRTIESLPEDLRMAITLRELDGLSYEEIAAIMDCPVGTVRSRIFRAREAIDNKVQPLIRR
modifications: fluorescein at residue C165
- Kd: ~53 nM
